Reference: patent publication US20240092853A1 (Hoffmann-La Roche, published 2024)
Changes are numbered by the printed parent chain.

B1: ExplResIEE.P026.099 (ligand)
chain: APASSSTKKTQEQLEHLLLELQNILNGINNYKNPKLTRMLTAKFAMPKKATELKHLQCLEEELKPLEEVLNGAQSKNFHLNPRELIENINVIVLELKGSETTFMCEYADETATIVEFLNEWIEFAQSIIETLN
notes: soluble pH-dependent IL2v variant in bacterial supernatant, first library; not shown: C-terminal His tag and Flag tag of the phagemid
B2: ExplResIEE.P026.175 (ligand)
chain: B1 chain with Q11E, E12L, E20Q, N23E, N81D, E120R, E123T
notes: as m5; not shown: C-terminal His tag and Flag tag of the phagemid
B3: ExplResIEE.P026.191 (ligand)
chain: B1 chain with L19D, E20D, N23M, N81D, E84D, E87S, N133E
notes: as for B2
B4: ExplResIEE.P026.237 (ligand)
chain: B1 chain with E12L, E20D, N23M, N81Q, E84D, V91D, E120R, N133D
notes: as for B2
B5: ExplResIEE.P026.355 (ligand)
chain: B1 chain with Q11E, E20D, N23Q, N81D, E84D, V91D, E120R, E123T, N133Q
notes: as for B2
B6: ExplResIEE.P027.359 (ligand)
chain: B1 chain with Q11E, E12L, L19D, E20D, N23M, N81D, E87S, E120R, E123T, N133D
notes: as for B2
B7: ExplResIEE.P030.006 (ligand)
chain: B1 chain with E12L, E20D, N23M, N81D, E84Q, E87D, V91N, E120R, E123Q, N133D
notes: as for B2
B8: ExplResIEE.P030.045 (ligand)
chain: B1 chain with E12L, L19D, E20D, N23M, N81E, E87Q, E120H, E123T, N133E
notes: as for B2
B9: ExplResIEE.P031.226 (ligand)
chain: B1 chain with E12L, L19D, E20D, N81D, E84D, E87S, E120R, E123T, E130S, N133E
notes: as for B2
B10: ExplResIEE.P041.017 (ligand)
chain: B1 chain with Q11E, E20D, N23Q, N81Q, E84D, E87D, V91N, E95Q, E120H, N133E
notes: as for B2
B11: ExplResIEE.P041.242 (ligand)
chain: B1 chain with E12L, L19D, E20D, N23M, N81E, E84D, E87S, E120R, E123T, N133D
notes: as for B2
B12: ExplResIEE.P041.449 (ligand)
chain: B1 chain with E12L, E20D, N23M, N81Q, E84D, V91D, E123T, N133D
notes: as for B2
B13: ExplResIEE.P041.554 (ligand)
chain: B1 chain with E12Q, L19Q, E20D, N23M, N81H, E84D, E87S, V91E, E120R, N133E
notes: as for B2
B14: ExplResIEE.P042.107 (ligand)
chain: B1 chain with K8E, E12L, N81H, E84Q, E120H, E123T, N133D
notes: as for B2
B15: ExplResOnc.P177.0035 (IL2v (consensus all)) (ligand, not shown: large carriers)
chain: APASSSTKKTELQLQELLDDLQMILNGINNYKNPKLTRMLTAKFAMPKKATELKHLQCLEEELKPLEEVLNGAQSKNFHLDPRELIENINVIVLELKGSETTFMCEYADETATIVEFLNHWITFAQSIIETLE
notes: as m20
B16: ExplResOnc.P172.0344 (ligand, not shown: large carriers)
chain: B1 chain with S6Y, Q13R, H16Q, E20D, Q22E, N23Q, E120H, E123T, N133D
notes: as m20
B17: ExplResOnc.P173.0079 (ligand, not shown: large carriers)
chain: B15 chain with E11Q, Q15E, Q22E, M23Q, E87D
notes: soluble pH-dependent IL2v variant in bacterial supernatant, second library
B18: ExplResOnc.P173.0087 (ligand, not shown: large carriers)
chain: B15 chain with L12E, Q15E, E16Q, Q22E, M23N, D81E
notes: as m20
B19: ExplResOnc.P173.0127 (ligand, not shown: large carriers)
chain: B15 chain with Q15E, M23E, E84D, Q126E, E130S, E133D
notes: as m20
B20: ExplResOnc.P173.0156 (ligand, not shown: large carriers)
chain: B15 chain with L12S, E16N, M23E, D81E, E87D
notes: as m20
B21: ExplResOnc.P173.0182 (ligand, not shown: large carriers)
chain: B15 chain with Q15E, D19L, M23E, D81N, Q126E
notes: as m20
B22: ExplResOnc.P173.0239 (ligand, not shown: large carriers)
chain: B15 chain with D19L, Q22E, M23E, D81H, E133D
notes: as m20
B23: ExplResOnc.P173.0255 (ligand, not shown: large carriers)
chain: B15 chain with L12D, Q13H, D19L, Q22E, M23E, D81N
notes: as m20
B24: ExplResOnc.P173.0259 (ligand, not shown: large carriers)
chain: B15 chain with D81E, E84D
notes: as m20
B25: ExplResOnc.P173.0364 (ligand, not shown: large carriers)
chain: B15 chain with E11Q, Q15E, E16D, D19L, M23N, E87S
notes: as m20
B26: ExplResOnc.P173.0371 (ligand, not shown: large carriers)
chain: B15 chain with E11Q, Q15E, M23Q, D81N, E87D, E133D
notes: as m20
B27: ExplResOnc.P174.0040 (ligand, not shown: large carriers)
chain: B15 chain with L12T, Q15E, E16Q, M23E
notes: as m20
B28: ExplResOnc.P174.0173 (ligand, not shown: large carriers)
chain: B15 chain with L12T, Q22H
notes: as m20
B29: ExplResOnc.P174.0326 (ligand, not shown: large carriers)
chain: B15 chain with E11Q, Q15E, Q22D, M23Q
notes: as m20
B30: ExplResOnc.P174.0327 (ligand, not shown: large carriers)
chain: B15 chain with L12E, Q13H, E16N, Q22E, M23Q, D81E, E87D, E95D, E130S
notes: as m20
B31: ExplResOnc.P175.0125 (ligand, not shown: large carriers)
chain: B15 chain with L12T, Q15E, Q22E, E133D
notes: as m20
B32: ExplResOnc.P175.0368 (ligand, not shown: large carriers)
chain: B15 chain with E11T, L12E, H120E, E133D
notes: as m20
B33: ExplResOnc.P177.0036 (ligand, not shown: large carriers)
chain: B15 chain with D81Q
notes: as m20
B34: ExplResOnc.P177.0156 (ligand, not shown: large carriers)
chain: B15 chain with L12S, Q15E, M23Q
notes: as m20
B35: ExplResOnc.P178.0145 (ligand, not shown: large carriers)
chain: B15 chain with L12E, Q15E, E16N, D19L, M23N, D81E, E87S
notes: as m20

Molecular target: T1, IL2R(bg)-Fc construct (human IL2R beta extracellular domain fused to Fc(knob) with avi tag, human IL2R gamma … (human, biotin on the C-terminal avi tag (co-expressed BirA)))
T1 construct: Knob-into-hole Fc heterodimer; also called IL2Rβγ; human heterodimeric IL-2 receptor beta/gamma
Assay: ELISA: biotinylated IL2R(bg)-Fc coated on neutravidin plates, clone in bacterial supernatant bound at pH 6, washing and 30 min incubation at pH 6 or pH 7.4, detection with anti-Flag/HRP; absorption at pH 6 set to 1
Method: (§1) FIG. 3. Binding analysis for the first set of selected pH-dependent IL2v variants to IL2Rfβγ at pH 6 and pH 7.4 by ELISA. Bacterial supernatants containing clonal pH-dependent IL2v variants were incubated with previously coated IL2Rfβγ. Prior to the detection by an anti-Flag/HRP secondary antibody, extensive washing for 30 minutes was performed at pH 6 or pH 7.4. The absorption at pH 6 was normalized to a value of 1 and the ratio of absorption levels was compared.
25 μl of 50 nM biotinylated antigen per well were coated at pH 6 on 384-well neutravidin plates and blocked with 2% BSA (50 mM BisTris 140 mM NaCl, 2% BSA, pH 6). Bacterial supernatants containing soluble variants of IL2v were re-buffered to pH 6, added to the plates and incubated for 1 h. Subsequently, several washing steps were performed at either pH 6 or pH 7.4 followed by an incubation step in washing buffer for 30 min at the respective pH. Binding of pH-dependent IL2v variants to the IL2R(bg)-Fc construct was detected via Flag tag by using an anti-Flag/HRP secondary antibody. Comparison of the signal between the two conditions (pH 6 vs pH 7.4) allowed identifying constructs that bind in a pH-dependent manner. The phagemid expressing the parental IL2v construct was used as an internal pH-independent control. […] (FIG. 3), were selected (SEQ ID NOs 5-19) and converted into one-armed (OA) targeted conjugates.

T1 sequence (chain, as listed by the source limits assumed, chain 1 of 2): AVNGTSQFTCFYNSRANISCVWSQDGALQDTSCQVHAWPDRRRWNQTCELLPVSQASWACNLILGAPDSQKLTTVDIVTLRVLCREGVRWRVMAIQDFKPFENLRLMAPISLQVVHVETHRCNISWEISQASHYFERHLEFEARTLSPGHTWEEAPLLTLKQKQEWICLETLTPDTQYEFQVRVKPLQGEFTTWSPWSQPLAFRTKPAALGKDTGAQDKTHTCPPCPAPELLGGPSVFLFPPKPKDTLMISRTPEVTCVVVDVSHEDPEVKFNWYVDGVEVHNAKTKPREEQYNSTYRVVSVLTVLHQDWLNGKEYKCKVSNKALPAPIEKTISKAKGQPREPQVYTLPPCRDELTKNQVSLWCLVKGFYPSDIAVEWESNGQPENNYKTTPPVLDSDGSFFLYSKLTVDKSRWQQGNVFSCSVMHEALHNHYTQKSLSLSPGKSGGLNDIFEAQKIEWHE
T1 sequence (chain, as listed by the source limits assumed, chain 2 of 2): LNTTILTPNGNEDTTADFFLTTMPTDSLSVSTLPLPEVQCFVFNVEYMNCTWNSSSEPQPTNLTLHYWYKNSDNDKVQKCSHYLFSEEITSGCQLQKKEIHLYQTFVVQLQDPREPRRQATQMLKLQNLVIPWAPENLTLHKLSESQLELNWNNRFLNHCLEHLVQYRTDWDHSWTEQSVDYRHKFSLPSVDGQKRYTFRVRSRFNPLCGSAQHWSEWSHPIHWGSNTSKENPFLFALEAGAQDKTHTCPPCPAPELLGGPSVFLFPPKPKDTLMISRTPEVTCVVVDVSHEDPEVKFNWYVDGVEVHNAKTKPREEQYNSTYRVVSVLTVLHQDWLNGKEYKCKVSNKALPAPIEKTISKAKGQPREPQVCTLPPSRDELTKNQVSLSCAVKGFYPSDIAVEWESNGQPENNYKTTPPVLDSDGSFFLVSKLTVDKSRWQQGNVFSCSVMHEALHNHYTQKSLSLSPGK

Binder | binding result
B1 | binds
B2 | binds
B3 | binds
B4 | binds
B5 | binds
B6 | binds
B7 | binds
B8 | binds
B9 | binds
B10 | binds
B11 | binds
B12 | binds
B13 | binds
B14 | binds

Molecular target: T1, IL2R(bg)-Fc construct (human IL2R beta …)
Assay: ELISA: biotinylated IL2R(bg)-Fc coated on neutravidin plates, clone in bacterial supernatant bound at pH 6, washing and 30 min incubation at pH 6.0, 6.5, 7.0 or 7.4, detection with anti-Flag/HRP; absorption at pH 6 set to 1
Method: as §1, with “FIG. 4. Binding analysis” for “FIG. 3. Binding analysis”, “for the second set of” for “for the first set of”, “at pH 6, pH 6.5, pH 7 and pH” for “at pH 6 and pH”
25 μl of 50 nM biotinylated antigen per well were coated at pH 6 on 384-well neutravidin plates and blocked with 2% BSA (50 mM BisTris 140 mM NaCL, 2% BSA, pH 6). Bacterial supernatants containing soluble variants of IL2v were re-buffered to pH 6, added to the plates and incubated for 1 h. Subsequently, several washing steps were performed at either pH 6 or pH 7.4 followed by an incubation step in washing buffer for 30 min at the respective pH. Binding of pH-dependent IL2v variants to the IL2R(bg)-Fc construct was detected via Flag tag by using an anti-Flag/HRP secondary antibody. Comparison of the signal between the two conditions (pH6 vs pH7.4) allowed identifying clones that bind in a pH-dependent manner. The phagemid expressing the parental IL2v construct was used as an internal control for a pH-independent signal. Clones with a binding ratio at pH 6 versus pH 7 that greater than 10 were short-listed and re-tested in order to confirm their pH-dependency.
In order to further characterize the selected pH-dependent IL2v variants, they were analyzed for their binding to IL2R(bg)-Fc under four different pH conditions including pH 6, pH 6.5, pH 7, and pH 7.4. Binding at pH 6 was normalized to 1 in order to better compare binding among all clones. […] In general, binding intensity at pH 7 and pH 7.4 was reduced between 10-100-fold

Binder | binding result
B15 | binds
B16 | binds
B17 | binds
B18 | binds
B19 | binds
B20 | binds
B21 | binds
B22 | binds
B23 | binds
B24 | binds
B25 | binds
B26 | binds
B27 | binds
B28 | binds
B29 | binds
B30 | binds
B31 | binds
B32 | binds
B33 | binds
B34 | binds
B35 | binds
